This note sets out measurements from patent publication US20130280734A1.

In the assay the target is human GLP-1 receptor (GLP-1R) (human) (UniProt P43220). Nature of the assay: cell-based or functional assay. Conditions: scale: times higher concentration than the active forms of GLP-1.
Chain of human GLP-1 receptor (GLP-1R) (human) (P43220 24-463 limits assumed): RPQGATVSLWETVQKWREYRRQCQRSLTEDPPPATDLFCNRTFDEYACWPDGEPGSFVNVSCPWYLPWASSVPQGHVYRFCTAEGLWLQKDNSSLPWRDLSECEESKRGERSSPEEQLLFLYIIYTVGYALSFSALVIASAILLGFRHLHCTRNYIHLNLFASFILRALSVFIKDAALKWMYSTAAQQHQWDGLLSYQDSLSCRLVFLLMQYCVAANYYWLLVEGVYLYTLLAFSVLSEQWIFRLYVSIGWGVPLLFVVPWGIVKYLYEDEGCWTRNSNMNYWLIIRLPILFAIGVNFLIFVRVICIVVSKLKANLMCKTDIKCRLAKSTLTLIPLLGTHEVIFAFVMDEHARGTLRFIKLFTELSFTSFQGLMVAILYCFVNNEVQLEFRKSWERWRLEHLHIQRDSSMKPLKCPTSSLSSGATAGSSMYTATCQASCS
The substance “GIP (gastric inhibitory peptide or glucose-dependent insulinotropic polypeptide) (from UniProt P09681 52-93)” displayed a reactivity of the kit (aequorin luminescence), concentration relative to the active forms of GLP-1 greater than 1e+06. With “GLP-1 (9-36 amide) (from UniProt P01275 21-180) (peptide)” the figure was greater than 1e+06; with “GLP-2 (from UniProt P01275 146-178) (peptide)”, greater than 1e+06. As for “precursor GLP-1 (1-37) (from UniProt P01275 21-180) (peptide)”, the reactivity of the kit (aequorin luminescence), concentration relative to the active forms of GLP-1 amounted to 10000.
